Assay results taken from patent US20120107299.

System: GST protein [GST: P08515]
Sequence (P08515 whole entry): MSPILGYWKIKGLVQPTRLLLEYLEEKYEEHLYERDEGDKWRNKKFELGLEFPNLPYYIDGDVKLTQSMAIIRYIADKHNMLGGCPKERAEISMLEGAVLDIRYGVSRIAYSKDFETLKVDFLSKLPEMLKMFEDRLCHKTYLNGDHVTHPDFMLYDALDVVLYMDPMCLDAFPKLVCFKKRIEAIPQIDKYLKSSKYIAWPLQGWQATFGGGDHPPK

For FLAG-PTEN, the “in vitro dephosphorylation of PTEN, Western blot with anti-PTEN antibodies specific to each phosphorylation” value was “dephosphorylation of PTEN was not recognized in the GST protein”.
